Test [1] has as its target microtubules polymerised from porcine brain tubulin (porcine) (UniProt P02550). In words: TIRF microscopy (sfGFP fluorescence intensity on immobilised microtubules); as a3, but DCLK1 pre-incubated with 2 mM ATP for 30 min at 25°C.
Test [2] has the same target. In words: co-sedimentation; as a5, but DCLK1 pre-incubated with 2 mM ATP at 25°C for 30 min.
For test [3] the target is unchanged. In words: co-sedimentation; 500 nM sfGFP-DCLK1 with 2 μM taxol-stabilized microtubules, 25°C 20 min, pelleted at 90,000 xg; 50 mM Tris pH 8, 150 mM K acetate, 2 mM Mg acetate, 1 mM EGTA, 10% glycerol; DCLK1 pre-incubated 30 min without ATP.
For test [4] the target is unchanged. The test can be described thus: TIRF microscopy (sfGFP fluorescence intensity on immobilised microtubules); non-stabilized GDP microtubules grown from GMPCPP seeds fixed to the coverslip; 10 nM DCLK1 with 10 uM tubulin and 2 mM GTP in BRB80-based assay buffer; DCLK1 pre-incubated 30 min at 25°C without ATP.
Test [5] has the same target. In words: TIRF microscopy (sfGFP fluorescence intensity on immobilised microtubules); taxol-stabilized microtubules immobilised on the glass surface, sfGFP-DCLK1 flowed in; no ATP; 60 mM HEPES pH 7.4, 50 mM K acetate, 2 mM Mg acetate, 1 mM EGTA, 10% glycerol, biotin-BSA, Pluronic, κ-casein, 10 μM …; KD from a one-site-binding hyperbola fit of intensity against concentration.

The target is the same in test [6]. The test can be described thus: TIRF microscopy (sfGFP fluorescence intensity on immobilised microtubules); as a1, but DCLK1 incubated with 2 mM ATP for 30 min at 25°C before it was flowed onto immobilised taxol-stabilized microtubules; KD from a one-site-binding hyperbola fit.

Chain of microtubules polymerised from porcine brain tubulin (porcine) (P02550 whole entry, chain 1 of 2): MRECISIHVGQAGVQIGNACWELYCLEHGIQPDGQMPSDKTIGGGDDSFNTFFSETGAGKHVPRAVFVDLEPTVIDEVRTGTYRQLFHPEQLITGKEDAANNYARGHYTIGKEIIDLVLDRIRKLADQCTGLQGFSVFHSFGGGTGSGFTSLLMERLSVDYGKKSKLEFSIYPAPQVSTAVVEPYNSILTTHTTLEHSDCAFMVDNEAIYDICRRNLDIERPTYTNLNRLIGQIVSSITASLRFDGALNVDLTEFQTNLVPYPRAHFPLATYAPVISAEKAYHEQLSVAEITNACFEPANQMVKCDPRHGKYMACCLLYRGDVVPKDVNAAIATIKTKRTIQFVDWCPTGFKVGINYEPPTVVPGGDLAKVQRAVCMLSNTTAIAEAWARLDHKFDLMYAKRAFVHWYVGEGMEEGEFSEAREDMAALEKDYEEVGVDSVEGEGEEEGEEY
Chain of microtubules polymerised from porcine brain tubulin (porcine) (P02554 whole entry, chain 2 of 2, further chain): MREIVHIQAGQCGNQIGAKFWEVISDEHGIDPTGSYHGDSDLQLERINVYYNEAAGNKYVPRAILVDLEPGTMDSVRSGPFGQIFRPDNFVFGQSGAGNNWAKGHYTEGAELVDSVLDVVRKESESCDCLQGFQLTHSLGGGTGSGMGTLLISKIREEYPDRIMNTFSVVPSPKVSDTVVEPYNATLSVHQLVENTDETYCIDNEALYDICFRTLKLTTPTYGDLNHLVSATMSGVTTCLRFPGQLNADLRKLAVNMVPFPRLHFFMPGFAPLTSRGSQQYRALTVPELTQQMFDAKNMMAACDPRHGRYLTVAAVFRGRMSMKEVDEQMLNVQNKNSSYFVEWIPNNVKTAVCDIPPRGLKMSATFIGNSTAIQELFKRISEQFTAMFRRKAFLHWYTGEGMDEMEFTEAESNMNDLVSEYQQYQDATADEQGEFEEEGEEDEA

With “sfGFP-DCLK1 wild type (mouse, aa 1-740), co-expressed with lambda phosphatase, autophosphorylated by 30 min with 2 mM ATP (natural protein)”, in test [1], the microtubule-bound fluorescence intensity at 10 nM stood at 12500. Also, the percent of DCLK1 that co-pelleted with microtubules in test [2] stood at 86.2%.
Substance “sfGFP-DCLK1 wild type (mouse, aa 1-740), co-expressed with lambda phosphatase, not incubated with ATP (natural protein)” registered a percent of DCLK1 that co-pelleted with microtubules in test [3] of 99.3%. In test [4], this substance displayed a microtubule-bound fluorescence intensity at 10 nM of 15000.
In test [5], “sfGFP-DCLK1 wild type (mouse, aa 1-740), expressed in bacteria under standard conditions (natural protein)” showed a microtubule-bound fluorescence intensity at 3 nM of 2750 and a microtubule-bound fluorescence intensity at 25 nM of 16100.
On to “sfGFP-DCLK1 wild type (mouse, aa 1-740), treated with lambda phosphatase after purification (natural protein)”, for which, in test [5], the microtubule-bound fluorescence intensity at 3 nM came out at 15100 and the microtubule-bound fluorescence intensity at 25 nM was found to be 18200.
On to “sfGFP-DCLK1-D511N (kinase-dead, mouse, full length) (natural protein)”, for which, in test [5], the microtubule-bound fluorescence intensity at 3 nM came to 9070 and the microtubule-bound fluorescence intensity at 25 nM stood at 19700.
Substance “sfGFP-DCLK1-T688A (mouse, full length), co-expressed with lambda phosphatase, incubated 30 min with 2 mM ATP (natural protein)” came in with a percent of DCLK1 that co-pelleted with microtubules in test [2] of 7.9%.
In test [3], “sfGFP-DCLK1-T688A (mouse, full length), co-expressed with lambda phosphatase, not incubated with ATP (natural protein)” returned a percent of DCLK1 that co-pelleted with microtubules of 98.9%.
In test [6], “sfGFP-DCLK1-ΔC (mouse, aa 1-648), co-expressed with lambda phosphatase, hyperphosphorylated by 30 min with 2 mM ATP (domain or fragment)” returned a microtubule-bound fluorescence intensity at 5 nM of 988 and a microtubule-bound fluorescence intensity at 20 nM of 1580. In test [1], this substance displayed a microtubule-bound fluorescence intensity at 10 nM of 1580. The percent of DCLK1 that co-pelleted with microtubules in test [2] was 6.9%.
In turn, “sfGFP-DCLK1-ΔC (mouse, aa 1-648), co-expressed with lambda phosphatase, not incubated with ATP (domain or fragment)” showed a percent of DCLK1 that co-pelleted with microtubules in test [3] of 96.3%. In test [5], this substance gave a microtubule-bound fluorescence intensity at 5 nM of 12900 and a microtubule-bound fluorescence intensity at 20 nM of 23600. In test [4], this substance had a microtubule-bound fluorescence intensity at 10 nM of 12100.
In test [5], “sfGFP-DCLK1-ΔC (mouse, aa 1-648), treated with lambda phosphatase after purification (domain or fragment)” had a microtubule-bound fluorescence intensity at 3 nM of 12000 and a microtubule-bound fluorescence intensity at 25 nM of 21200.
In test [6], “sfGFP-DCLK1-ΔC DC1-4A (S77, S83, S96, T143 to alanine), co-expressed with lambda phosphatase, incubated with ATP (domain or fragment)” yielded a microtubule-bound fluorescence intensity at 5 nM of 4040 and a microtubule-bound fluorescence intensity at 20 nM of 12600.
In test [5], “sfGFP-DCLK1-ΔC DC1-4A (S77, S83, S96, T143 to alanine), co-expressed with lambda phosphatase, not incubated with ATP (domain or fragment)” returned a microtubule-bound fluorescence intensity at 5 nM of 12200 and a microtubule-bound fluorescence intensity at 20 nM of 22300.
“sfGFP-DCLK1-ΔC DC2-4A (T189, S193, T218, S228 to alanine), co-expressed with lambda phosphatase, incubated with ATP (domain or fragment)”: in test [6], the microtubule-bound fluorescence intensity at 5 nM amounted to 2480 and the microtubule-bound fluorescence intensity at 20 nM turned out to be 3500.
Regarding “sfGFP-DCLK1-ΔC DC2-4A (T189, S193, T218, S228 to alanine), co-expressed with lambda phosphatase, not incubated with ATP (domain or fragment)”, in test [5], the microtubule-bound fluorescence intensity at 5 nM was 8550 and the microtubule-bound fluorescence intensity at 20 nM was 19900.

The record behind these values is publication PMC8352597.
